Data published in PMC7610691 (Nature structural & molecular biology, 2020).

T1: Smc4 (S. cerevisiae condensin subunit) (S. cerevisiae, UniProt Q12267 1-1418)
T1 sequence: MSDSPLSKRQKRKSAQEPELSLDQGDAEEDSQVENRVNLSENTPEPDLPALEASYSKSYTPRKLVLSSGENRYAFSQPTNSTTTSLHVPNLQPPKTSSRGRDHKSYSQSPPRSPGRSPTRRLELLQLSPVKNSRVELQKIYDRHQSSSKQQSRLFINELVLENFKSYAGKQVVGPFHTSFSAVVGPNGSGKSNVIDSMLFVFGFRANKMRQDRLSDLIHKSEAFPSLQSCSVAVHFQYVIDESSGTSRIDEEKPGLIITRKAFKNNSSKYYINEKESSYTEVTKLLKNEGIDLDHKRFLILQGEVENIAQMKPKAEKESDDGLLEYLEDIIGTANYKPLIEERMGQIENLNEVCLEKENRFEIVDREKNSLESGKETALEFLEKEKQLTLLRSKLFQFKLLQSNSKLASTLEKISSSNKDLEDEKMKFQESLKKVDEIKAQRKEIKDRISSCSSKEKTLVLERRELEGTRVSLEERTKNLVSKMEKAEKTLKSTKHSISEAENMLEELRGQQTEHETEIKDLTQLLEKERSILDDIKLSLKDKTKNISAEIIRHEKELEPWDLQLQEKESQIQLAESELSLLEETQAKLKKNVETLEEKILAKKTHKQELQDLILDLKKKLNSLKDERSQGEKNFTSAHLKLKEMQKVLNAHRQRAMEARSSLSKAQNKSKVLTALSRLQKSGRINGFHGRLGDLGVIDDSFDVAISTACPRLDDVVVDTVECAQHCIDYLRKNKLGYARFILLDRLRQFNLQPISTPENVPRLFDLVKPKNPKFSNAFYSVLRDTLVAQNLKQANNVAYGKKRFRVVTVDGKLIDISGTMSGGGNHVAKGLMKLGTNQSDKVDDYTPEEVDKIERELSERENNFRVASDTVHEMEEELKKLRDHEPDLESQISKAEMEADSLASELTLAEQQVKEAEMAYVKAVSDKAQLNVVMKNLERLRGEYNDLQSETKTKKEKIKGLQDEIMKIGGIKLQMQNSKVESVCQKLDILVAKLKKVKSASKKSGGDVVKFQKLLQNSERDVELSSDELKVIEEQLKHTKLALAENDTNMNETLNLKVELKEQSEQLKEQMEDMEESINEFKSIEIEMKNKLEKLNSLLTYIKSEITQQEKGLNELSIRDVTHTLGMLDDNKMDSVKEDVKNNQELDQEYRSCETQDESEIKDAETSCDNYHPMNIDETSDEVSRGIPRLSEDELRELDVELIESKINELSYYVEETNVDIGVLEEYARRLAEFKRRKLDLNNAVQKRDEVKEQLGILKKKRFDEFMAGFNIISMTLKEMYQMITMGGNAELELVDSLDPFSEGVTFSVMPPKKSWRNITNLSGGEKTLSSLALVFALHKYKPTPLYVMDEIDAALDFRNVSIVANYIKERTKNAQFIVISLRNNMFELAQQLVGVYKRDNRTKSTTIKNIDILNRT

B1: Ycs4 (S. cerevisiae condensin HEAT-repeat subunit) (natural protein)
chain: MSGFSLSEYLTKFQTTDRESYPRLQDPSRELNVIIDQLAVSPEQIDASPDSLEALIDLCHDFPHLTPKLQTQLSYLISSSLSNLSKDIKANLSSNVNFTEIGGLIPQWKRHLEEYGYLIQVLLTFLQDELHKVSSQSTNLNRSAKNSKNDSANVELFKRDCNQMENLLESITKLLEINLSKIFQTTPEKDLFIGLFTRPLFVLLEIEPVTKVSSLKMFIQRILAMCVKNHGQSSSIQSSLMTNLTYFLHLSVFNAELLKLLNDEYNYPQLTEDILKEISTRVFNAKDTTGPKAISNFLIKLSELSPGIMLRQMNLVITLLNNSSITLRCSVVEACGNIVAELAQDPQTMEHYKQQIAVLIELLEERFQDSNPYVRTKAIQGCSKICDLSSKFNKSKAKFTSLAVRSLQDRSSLVRRNSVKLLSKLLLKHPFKAIHGSQLRLSEWEEYLKGSESQLNSTLKKVESQETLNDTIERSLIEEEVEQDEGQCRTELEGSFNKSAELSRIENEVENINATNTSVLMKLKLMIVYYKDAISFIKEIHKSIELISNLLFSKNRNEVLESMDFLVLADAFDIELSEFGIKKMLHLVWMKGTNDEGTSISVHLIECYKQLFLTAPDSCNMQEKAAHIAKNLINLSIGASIADLASLEQLLGMMYEQKLIDQHVINILWAIYNSASKASMQKEQNVNNRDSEKGFSKEQIHGSIIILGMLSLADNEIALKGLESLLNIGLGAVGLKDLTLCRYSCLALERMVPKRSTIITKAINQELEDVAVKKLYAIIINYTKDNEYYPMCEQALSALFTISSKPDILATDLIREKTMMTFGKPEEEDSILSLEQSSRVVSLSQLLFIVGQVAIKTLVYLEKCEAEFKKRKIEAETRNGKVKNQGADVTNTTQDNGGDKELEMIGGTNEDDFTDAIQFVKENELLFGEKSILGKFCPIVEEIVSNSSRFSDPMLQRTATLCLEKLMCLSSKYCEKSLPLLITVMEKSPDPTIRSNAVLGLGDMAVCFNNLVDENTDYLYRRLHDENLMVQRTCLMTVTFLILAGQVKVKGQLGEMAKCLDNPDQGISDMCRLFFTELASKDNAIYNGFIDIFSNLSSDDLLGKESFKKIIKFLLTFIDKERHQKQLNEKLVGRLRKCETQKQWDDIAFVLNNLPYKNEDVTALLEQGFKVVSAKE
B2: Smc2 (S. cerevisiae condensin subunit) (natural protein)
chain: MKVEELIIDGFKSYATRTVITDWDPQFNAITGLNGSGKSNILDAICFVLGIASMSTVRASSLQDLIYKRGQAGVTKASVTIVFDNTDKSNSPIGFTNSPQISVTRQVVLGGTSKYLINGHRAPQQSVLQLFQSVQLNINNPNFLIMQGKITKVLNMKPSEILSLIEEAAGTKMFEDRREKAERTMSKKETKLQENRTLLTEEIEPKLEKLRNEKRMFLEFQSTQTDLEKTERIVVSYEYYNIKHKHTSIRETLENGETRMKMLNEFVKKTSEEIDSLNEDVEEIKLQKEKELHKEGTISKLENKENGLLNEISRLKTSLSIKVENLNDTTEKSKALESEIASSSAKLIEKKSAYANTEKDYKMVQEQLSKQRDLYKRKEELVSTLTTGISSTGAADGGYNAQLAKAKTELNEVSLAIKKSSMKMELLKKELLTIEPKLKEATKDNELNVKHVKQCQETCDKLRARLVEYGFDPSRIKDLKQREDKLKSHYYQTCKNSEYLKRRVTNLEFNYTKPYPNFEASFVHGVVGQLFQIDNDNIRYATALQTCAGGRLFNVVVQDSQTATQLLERGRLRKRVTIIPLDKIYTRPISSQVLDLAKKIAPGKVELAINLIRFDESITKAMEFIFGNSLICEDPETAKKITFHPKIRARSITLQGDVYDPEGTLSGGSRNTSESLLVDIQKYNQIQKQIETIQADLNHVTEELQTQYATSQKTKTIQSDLNLSLHKLDLAKRNLDANPSSQIIARNEEILRDIGECENEIKTKQMSLKKCQEEVSTIEKDMKEYDSDKGSKLNELKKELKLLAKELEEQESESERKYDLFQNLELETEQLSSELDSNKTLLHNHLKSIESLKLENSDLEGKIRGVEDDLVTVQTELNEEKKRLMDIDDELNELETLIKKKQDEKKSSELELQKLVHDLNKYKSNTNNMEKIIEDLRQKHEFLEDFDLVRNIVKQNEGIDLDTYRERSKQLNEKFQELRKKVNPNIMNMIENVEKKEAALKTMIKTIEKDKMKIQETISKLNEYKRETLVKTWEKVTLDFGNIFADLLPNSFAKLVPCEGKDVTQGLEVKVKLGNIWKESLIELSGGQRSLIALSLIMALLQFRPAPMYILDEVDAALDLSHTQNIGHLIKTRFKGSQFIVVSLKEGMFANANRVFRTRFQDGTSVVSIM

Tests used:
[1] = target: T1, Smc4 (S. cerevisiae condensin subunit); experiment: cryo-EM structure
[2] = target: B1; experiment: cross-linking

Binder	binding result [1]	binding result [2]
B1	binds	–
B2	binds	binds
